The assay addresses AVP V1A receptor (mouse) (UniProt Q62463). Put plainly: cell-based or functional assay.

Chain of AVP V1A receptor (mouse) (Q62463 whole entry): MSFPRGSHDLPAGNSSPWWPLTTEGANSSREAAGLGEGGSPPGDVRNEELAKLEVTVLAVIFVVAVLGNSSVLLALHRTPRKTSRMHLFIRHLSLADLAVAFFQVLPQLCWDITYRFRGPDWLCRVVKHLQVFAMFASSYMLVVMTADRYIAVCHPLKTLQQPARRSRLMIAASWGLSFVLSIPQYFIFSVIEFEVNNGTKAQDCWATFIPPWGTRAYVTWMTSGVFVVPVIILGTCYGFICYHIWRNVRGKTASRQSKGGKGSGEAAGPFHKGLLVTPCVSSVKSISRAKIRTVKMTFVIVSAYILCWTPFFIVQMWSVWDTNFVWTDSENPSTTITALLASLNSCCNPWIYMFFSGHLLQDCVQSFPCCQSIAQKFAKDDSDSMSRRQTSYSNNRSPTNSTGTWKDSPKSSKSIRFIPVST

“arginine vasopressin (from UniProt P01185 20-28) (peptide)” came in with an EC50 of contractile response, 2°-branch mesenteric artery, control mice of 0.57 nM; an EC50 of contractile response, 2°-branch mesenteric artery, sRA mice of 15.9 nM; an EC50 of contractile response, abdominal aortic rings, control mice of 2.19 nM; an EC50 of contractile response, abdominal aortic rings, sRA mice of 3.72 nM. In addition, the Maximum Response (contraction), 2°-branch mesenteric artery, control mice was found to be 52.5%; the Maximum Response (contraction), 2°-branch mesenteric artery, sRA mice worked out at 17.3%; the Maximum Response (contraction), abdominal aortic rings, control mice is 0.29 g; the Maximum Response (contraction), abdominal aortic rings, sRA mice was 0.12 g.

Values taken from patent publication US20150374698A1.
